± gives the standard error. Variants at the floor of the assay were thinned out. Where only a bound is given, the exact number is not on record here.

B1: glmS ribozyme (parent)
chain: AUAAAAGCGCCAGAACUACAGAAAUGUAGUUGACGAGGAGGAGGUUUAUCGAAUUUUCGGCGGAUGCCUCCAAA

Conditions in all cases: with glucosamine-6-phosphate
The variants in data set [1] derive from B1. The data set can be described thus: self-cleavage kobs at 640 uM GlcN6P; higher = faster cleavage; RNA array. The method in brief: (§1)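 Barcoded ribozyme variants were transcribed in situ on sequenced MiSeq chips by E. coli RNA polymerase. At 37 °C, a hybridised Cy3 probe tracked them while glucosamine-6-phosphate (40 μM to 10 mM) in HEPES/KCl/Mg(OAc)2 buffer flowed in and tiles were imaged over ~14 h. Per-tile medians of signals normalised to baseline and to non-cleaving reference variants were fit to one- or two-exponential decays, giving kobs. kcat and KM came from weighted Michaelis–Menten fits across concentrations.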

In data set [2] the parent is B1. The data set can be described thus: self-cleavage kobs at 2500 uM GlcN6P; higher = faster cleavage; RNA array. The method in brief: as §1
Data set [3] covers variants of B1. The data set can be described thus: self-cleavage kobs at 10000 uM GlcN6P; higher = faster cleavage; RNA array. The method in brief: as §1

On to U46G U57C, for which the “self-cleavage kobs at 640 uM GlcN6P” value with glucosamine-6-phosphate [1] is under 1e-05 s⁻¹.
Turning to G7C U45G A53U A64G, the “self-cleavage kobs at 640 uM GlcN6P” value in the data set with glucosamine-6-phosphate [1] is under 1e-05 s⁻¹.
For the variant A6U U56G U65A C67A, the “self-cleavage kobs at 640 uM GlcN6P” value with glucosamine-6-phosphate [1] amounted to 9.86e-05 ± 3e-05 s⁻¹. In addition, the “self-cleavage kobs at 2500 uM GlcN6P” value with glucosamine-6-phosphate [2] stood at 0.000119 ± 2.9e-05 s⁻¹.
G40A A42G G51U U57A U69C: the “self-cleavage kobs at 640 uM GlcN6P” value in the data set with glucosamine-6-phosphate [1] was under 1e-05 s⁻¹.
Take G32A C34U G60A: the “self-cleavage kobs at 640 uM GlcN6P” value with glucosamine-6-phosphate [1] is under 1e-05 s⁻¹. Besides, the “self-cleavage kobs at 2500 uM GlcN6P” value with glucosamine-6-phosphate [2] is under 1e-05 s⁻¹.
Regarding A14U A36G U47A, the “self-cleavage kobs at 640 uM GlcN6P” value in the data set with glucosamine-6-phosphate [1] is under 1e-05 s⁻¹. Besides, the “self-cleavage kobs at 2500 uM GlcN6P” value with glucosamine-6-phosphate [2] was under 1e-05 s⁻¹.
On to A6G C8G C11G G13U C50G C61A C71U, for which the “self-cleavage kobs at 640 uM GlcN6P” value with glucosamine-6-phosphate [1] was determined as 0.00556 ± 0.0017 s⁻¹. Moreover, in the data set with glucosamine-6-phosphate [2], the “self-cleavage kobs at 2500 uM GlcN6P” value was 0.000121 ± 5.1e-05 s⁻¹.
In the case of A36G C58A G59U C70U, the “self-cleavage kobs at 640 uM GlcN6P” value with glucosamine-6-phosphate [1] is under 1e-05 s⁻¹. Besides, in the data set with glucosamine-6-phosphate [2], the “self-cleavage kobs at 2500 uM GlcN6P” value is under 1e-05 s⁻¹.
Turning to U46A C50G C58G, the “self-cleavage kobs at 640 uM GlcN6P” value in the data set with glucosamine-6-phosphate [1] was under 1e-05 s⁻¹.
Consider A12U C16G G32A, for which the “self-cleavage kobs at 640 uM GlcN6P” value in the data set with glucosamine-6-phosphate [1] worked out at 9.86e-05 ± 2.9e-05 s⁻¹. Also, the “self-cleavage kobs at 2500 uM GlcN6P” value in the data set with glucosamine-6-phosphate [2] came out at 0.000137 ± 4.8e-05 s⁻¹.
Take A12U U45A U65G: in the data set with glucosamine-6-phosphate [1], the “self-cleavage kobs at 640 uM GlcN6P” value was 0.000665 ± 0.00016 s⁻¹.
For C16U G59C U65G, the “self-cleavage kobs at 640 uM GlcN6P” value with glucosamine-6-phosphate [1] was under 1e-05 s⁻¹. Moreover, the “self-cleavage kobs at 2500 uM GlcN6P” value with glucosamine-6-phosphate [2] was under 1e-05 s⁻¹.
On to A12G G26U G38A C68G C71A, for which the “self-cleavage kobs at 640 uM GlcN6P” value in the data set with glucosamine-6-phosphate [1] was 0.000109 ± 2e-05 s⁻¹. Moreover, the “self-cleavage kobs at 2500 uM GlcN6P” value with glucosamine-6-phosphate [2] is 7.22e-05 ± 2.4e-05 s⁻¹.
With A28C A33U G59U C61U, the “self-cleavage kobs at 640 uM GlcN6P” value with glucosamine-6-phosphate [1] was under 1e-05 s⁻¹.
Regarding C16U C34U G66U C68G, the “self-cleavage kobs at 640 uM GlcN6P” value with glucosamine-6-phosphate [1] amounted to 0.000354 ± 0.0001 s⁻¹.
Take U31G U49G C67A: the “self-cleavage kobs at 640 uM GlcN6P” value with glucosamine-6-phosphate [1] is 4.09e-05 ± 1.4e-05 s⁻¹.
In the case of U46G U57C G60U, the “self-cleavage kobs at 640 uM GlcN6P” value in the data set with glucosamine-6-phosphate [1] was under 1e-05 s⁻¹.
Take A12G G29C A39G A52C C67A: the “self-cleavage kobs at 640 uM GlcN6P” value with glucosamine-6-phosphate [1] was under 1e-05 s⁻¹.
On to G7U C10U G43U, for which the “self-cleavage kobs at 640 uM GlcN6P” value with glucosamine-6-phosphate [1] was under 1e-05 s⁻¹.
With C34G G35C G60C C68G, in the data set with glucosamine-6-phosphate [1], the “self-cleavage kobs at 640 uM GlcN6P” value came to 6.81e-05 ± 3.1e-05 s⁻¹.
In the case of C16U C34A G37A C68G, the “self-cleavage kobs at 640 uM GlcN6P” value with glucosamine-6-phosphate [1] was found to be 0.000275 ± 0.00012 s⁻¹.
As to A36U A39G, the “self-cleavage kobs at 640 uM GlcN6P” value with glucosamine-6-phosphate [1] was under 1e-05 s⁻¹.
Regarding C11U U47A A53G U56A C70G, in the data set with glucosamine-6-phosphate [1], the “self-cleavage kobs at 640 uM GlcN6P” value is 5.74e-05 ± 1.8e-05 s⁻¹. The “self-cleavage kobs at 2500 uM GlcN6P” value with glucosamine-6-phosphate [2] came to 0.000104 ± 3.4e-05 s⁻¹.
As for A6C U69G, in the data set with glucosamine-6-phosphate [1], the “self-cleavage kobs at 640 uM GlcN6P” value stood at 0.000265 ± 0.00011 s⁻¹.
As for C34U U55A U57G C61U, in the data set with glucosamine-6-phosphate [1], the “self-cleavage kobs at 640 uM GlcN6P” value was under 1e-05 s⁻¹. Moreover, the “self-cleavage kobs at 10000 uM GlcN6P” value with glucosamine-6-phosphate [3] was under 1e-05 s⁻¹.
Consider U31C G35C G38U, for which the “self-cleavage kobs at 640 uM GlcN6P” value with glucosamine-6-phosphate [1] is under 1e-05 s⁻¹.
The same measure, in the same setting: as for C8G G29C A42G G51C C58G G59A, the figure is under 1e-05 s⁻¹; as for G7U G35U C58U C70A C71U, under 1e-05 s⁻¹.
Take G7U A14G G40U: the “self-cleavage kobs at 640 uM GlcN6P” value with glucosamine-6-phosphate [1] is under 1e-05 s⁻¹. The “self-cleavage kobs at 2500 uM GlcN6P” value in the data set with glucosamine-6-phosphate [2] was under 1e-05 s⁻¹.
For A33C U54G C71U, the “self-cleavage kobs at 640 uM GlcN6P” value with glucosamine-6-phosphate [1] stood at 7.35e-05 ± 2.2e-05 s⁻¹. Also, the “self-cleavage kobs at 2500 uM GlcN6P” value with glucosamine-6-phosphate [2] is 0.000178 ± 4.9e-05 s⁻¹.
In the case of C10U G13A G29A G41A, the “self-cleavage kobs at 640 uM GlcN6P” value in the data set with glucosamine-6-phosphate [1] is under 1e-05 s⁻¹.
As for G35C U49A G51U A53U, the “self-cleavage kobs at 640 uM GlcN6P” value with glucosamine-6-phosphate [1] is under 1e-05 s⁻¹. Moreover, the “self-cleavage kobs at 2500 uM GlcN6P” value in the data set with glucosamine-6-phosphate [2] was under 1e-05 s⁻¹.
With G29U A33U G44A, the “self-cleavage kobs at 640 uM GlcN6P” value in the data set with glucosamine-6-phosphate [1] was under 1e-05 s⁻¹. In addition, the “self-cleavage kobs at 2500 uM GlcN6P” value with glucosamine-6-phosphate [2] is under 1e-05 s⁻¹.
As to C10G C11G G32C G59C C67G, the “self-cleavage kobs at 640 uM GlcN6P” value in the data set with glucosamine-6-phosphate [1] is under 1e-05 s⁻¹.
As to C8G C67U C70G, in the data set with glucosamine-6-phosphate [1], the “self-cleavage kobs at 640 uM GlcN6P” value is under 1e-05 s⁻¹.
For the variant A15C A36G U55A, in the data set with glucosamine-6-phosphate [1], the “self-cleavage kobs at 640 uM GlcN6P” value was under 1e-05 s⁻¹. The “self-cleavage kobs at 2500 uM GlcN6P” value with glucosamine-6-phosphate [2] was under 1e-05 s⁻¹.
Turning to C68A U69G, in the data set with glucosamine-6-phosphate [1], the “self-cleavage kobs at 640 uM GlcN6P” value stood at 9.62e-05 ± 3.5e-05 s⁻¹.

For the origin of these results see the supplement of paper PMC7125110.
